The values below come from a protein production outcome set (Wang et al. 2014).

A short description of the data set: label from the status in PepcDB records.
Regarding “MIITIPIKNQKDIGTPSDSVVVLGYFDGIHKGHQELFRVANKAARKDLLPIVVMTFNESPKIALEPYHPDLFLHILNPAERERKLKREGVEELYLLDFSSQFASLTAQEFFATYIKAMNAKIIVAGFDYTFGSDKKTAEDLKNYFDGEVIIVPPVEDEKGKISSTRIRQAILDGNVKEAGKLLGAPLPSRGMVVHGNARGRTIGYPTANLVLLDRTYMPADGVYVVDVEIQRQKYRAMASVGKNVTFDGEEARFEVNIFDFNQDIYGETVMVYWLDRIRDMTKFDSVDQLVDQLKADEEVTRNWS”, the protein production result is reported as “not failed”. Under “MIIWSGWGFLVAIIVIINTLLGKAIFGSITGDATYFQDHSWPMAVMFIISGVMSWYLGKYINKPDGKVYIDAETGEKVMFNKKHSLFFIKMEYWGPILGVIAIVTLITR” stands “failed”. Next, “MIKFYQYKNCTTCKKAAKFLDEYGVSYEPIDIVQHTPTINEFKTIIANTGVEINKLFNTHGAKYRELDLKNKLQTLSDDEKLELLSSDGMLVKRPLAVMGDKITLGFKEDQYKETW”: “not failed”; “MIKGGGGKSSGYSADLMVCFPSRAHLSLPSKSISSPSSSFNRRQNAPHHRRSISKLSSSGGGVRQNRGGGREVVEEPTSPKVTCAGQIKVRSSKRDGGGKNWQSLMAEIEKIHRSKSESKFFGIKRDVMGFLTCLRDFDFRCFGAFPPVDIISDDEEEDEEEEEEDEEEDEDESSGTVFSKWLMVLHEKQNNEECVDGKENVFSDVETAVPPPNALLLMRCRSAPVKNWSEEKKEETEEGDNRVKQSGEEEEEEKDRVGNKKDLRSLMEEEKKMNLVVMNYDTNYYKLSNDIAKETWVVGGIQDPLFRSRSWKK”: “failed”; “MIKIAVIAGGSFDCLPEPADLYVGVDAGSLRLLDHSLPLDWAIGDFDSVTSEELGQIREMAEQFLQAPAEKDDTDLELALKEIFKAYPQAQVRIYGALGGRMDHMMSNLFLVAEPDLAAYMEQIELVDSQNVVRFRPAGSHRISPIAGMKYISFMPSDQSHLTIRYAKYPLDASNYFFKKCYASNEFIDRDIDIQLDQGYVVLIYSKDKD”: “failed”.

In the case of “MIKKFKNYDQIIKELFVIAIPTAFESLLFQMVTFFDNFMISYLGSFHVTGVSLANRVTFLFFIIVFGLGTALSAYVSQAIAKKKFLQVRQSFAYILLIGTTIGIIFFIFSFLFPRNIIKLFTANQDSLNFGSEYLKIISLSYVLMAYSFLSAMGFKSAKEVKIPLYVTSIVVLINIVFNYILIFGFSMGIKGAAYATVLARIVEFVFYFLYSLISSNSYYRIKFGDFFAPKVVTRANLKLIIPVLSHEIFWVLSITILHAFYARVGSIEYASFAVASNLFDICFVLLHGMGLATGVVIGHLMIYDKKHVRSVGFFLSFLGFLLGIFVVILLIGISSFAPYIFSKLDSPELVSVFIYVFASIVIFKAFTAQVLVGVFRASGIPNVCFFIESGVIVFYTLPVAYLLVFYTNLSLPIVVFIVNLEEIIKNIFIIIEFFHDDWIREIEYEELA”, the protein production result is given as “failed”. Under “MIKLKNDRLEVEIDNMGAQLTHVIGNESGYDYIWNGDAWKKHAPILFPAIGKSNNDEYVVDGKTYRMPQHGFARDFDWQKVNQAENRVMLELKSNAKTKEMFPFDFTLQVEYKLDQNQLLIGYRVINNDQRMMPYALGSHPAFNLPIDDDGVFEDYRLTFGPKQKQIKRLGVGPIPFRDGTEAPYPSIQASELALNHEMFDDGLIILNAKKLENVTLHSNQTAHEVKLNIKQFPYLTLWAMEHETQPFICIEPFAGLPDQASDQPTDWNNKKGNNLLEAGESHTFEYGIEFK” stands “failed”. Next, “MIKLNRDQKLTYKFLIIPIALLILSFNPYTESLEFSLPAVYMASHYAVYFSGLYIGYKYFKGGYISLILGLIPAVLWHSPYFFSLGAAMLDYRILLEITLLFGGVLLGSSINSMRLQIKITLLALWMLGDSILAILFITSTPLYSNLAYPFSPYTPSSLPLAGILMFVIMNVFLIYVISKFMKSIIG”: “failed”; “MIKRLKVNVIDLSSLVYLIFAVIPLFTFDLKGPYWMYVIIFIIFTISYTALAIFTEVLSTKMIYTFLILHYIGITYLVYSVGPATSLFFFFSSFILPYVLKVKMKSIAFLIFIVVMLINFILIYVADPLSLGFIAVMHIAILLITVGNFKQSETIKMKNALEEKNKHINVLIAEQERNRIGQDLHDTLGHVFASSSIKSELAIKLIDSDSEKAKLQMIEVNNISKESLNKVRSIVNDLKIQSFEEEVASMETLLKNANLNFEFFNAELAKGISPAKQAILAMILREAINNVLKHAHATSVTGSLTETQNDITLTIIDNGIGMDDLKEHDLKSIKERVALMNGSIEIQSNHGLCISIKISRGDA”: “failed”; “MIKRLTISPLFLILSLIAYYLSRNDILLYSTLSTILFWTFIILILPTSFYNYIKDGIVKYCKKKIFWFTVGLYISYHVILYSFFFYLLLPGSIKNISFWFSFNAGIGYSIPPPITYFLEWVSNSPAIWFFIGPYEGDVIPFSTFLGVVLALLIGLNVMKILELWGISNKLSKSIVLIPSLGVVSGSSCCVFLPSIVMYSIALSISSITATILSILSSFAYFILAYYALPIVSAIVLFHNLTMLNRLIKKLSFTM”: “failed”. Next, “MIKSSSKIGLAFFVRPQFDVDLAKNFFNKVQDSLKEAGIATQVFELPVSTDAEALSLAESVNSHQDLHGLIVVQGTFCDASLILNLASNINLPIMIWATKEQPTGGRLSLNSFCGLNLGAHTLVNAGIKFKGVYGSPGSPAVIKKVTSFARAAGAVKWLKGKRIGLFGHRPSGYYPSNFNEILLRKQFGITVEYLSLSEVFSLAQKMEIKDIQPFINTLVGVEGLEMVSTSKSVQAYLALKELIAQKALDAVAVECWPEFMAGFGGAVCYALSRLNDEGIVAACEADVNGAVTMLLGSYLSSQANFIADLVGAEEEQNQLIFWHCGNGPLSLAAPGTNPVAGVHPNRKTPLAMYFPLKGGPVTVSRLSSDHNGNLRLFLGSGTGIETDLLYSGNSLPIQISGSVEETLDTILCEGIEHHYIVTYGDLTSEFREIAELLGLRMITFLEHHHHHH”: “failed”. As to “MILAIDLGTSGAKAAIIDSAGAVHEQTFVPYSTTKLPNGGVEQDPMQWVSAARQAVTRLPRSYSVVSFTGQMQDLICLDRAGRPLGQALLYNDARAAAEAARLNTVVPEWKDITGNRQTATSTAAMWLRLMEQSD”, the protein production result was “failed”. Under “MILEFKSEKKMINFSKSFFYPLPIGKIFVLSGDMGSGKTSFLKGLALNLGISYFTSPTYNIVNVYDFINFKFYHIDLYRVSSLEEFELVGGLEILMDLDSIIAIEWPQIALSIVPKDRLFSLTFKIVGSGRVVELNGLEHHHHHH” stands “not failed”; under “MILGIDIGGANTKITELHENGEFKVHHLYFPMWKNNDKLAEVLKTYSKDISHVALVTTAELADSYETKKEGVDNILNAAESAFGSNISVFDSDGNFISLEGAKTNYMKVSASNWCGTAKWVSKNIEENCILVDMGSTTTDIIPIVDGKVVAEKTDLERLMNHELLYVGTLRTPISHLGNTILFKGVNTNVSSEYFAITADISVVLEKVTTEEYTCDTPDGKGTDKRSSLVRISKVLCSDLDQISEIDAENIAKTYYELWKELILENVKKVAEKYGSKKVVITGIGENILKDALGDFEVISVAERYGKDVSLATPSFAVAELLKNELLEHHHHHH”, “not failed”; under “MILINKRAEKQDYQTILAIWEKSVIVTHDFLTAEDRQFYKEQIPLFLDNVELFLWFAGEEVIGFSGTSERELDMLFLDPVATGNGYGSQILGWLIENKRINLVDVNEQNENATRFYLKHGFVVSSRSDLDGFGKPYPILQLQLK”, “not failed”. Next, “MILKRAYDVTPQKISTDKVRGVRKRVLIGLKDAPNFVMRLFTVEPGGLIDRHSHPWEHEIFVLKGKLTVLKEQGEETVEEGFYIFVEPNEIHGFRNDTDSEVEFLCLIPKEGGE”: “not failed”; “MILLKSLYKGFFAAMKEENFEARCYNREKGGCVLIKTMQYKKTMATVVALIVALLLFGLIYDLLGVQKNELAAQKSAQPKVKTARVVANGDILIHDILYMSARKADDTYDFTPYFEYVKDWISGADLAIGDYEGTISPDYPLAGYPLFNAPEEIAGALKNTGYDVVDLAHNHILDSQLDGALNTKKVFHQLGIDSIGIYDKDRSKESFLIKNVNGIKIAILGYSYGYNGMEATLSQEDYEKHMSDLDEAKIKKELQLAEKKADVTIVMPQMGTEYALEPTAEQKELYHKMIDWGADVVLGGHPHVIEPSETVIKGRQKKFIIYSMGNFISNQRLETVDDIWTERGLLMDLTFEKKDNKTKIKTVEAHPTMVLAKGKGIVGKEGFELYNYRTMVLEDFIKGGKYHDKIDEETKAKVALAYQEINDLVNLKW”: “failed”. Next, “MILLTSVLAIVSVILLTLPLLEAYSLNSSLVGGAVSPGATYSYKMNAVLINFYHNNSISHLLGNFSFTTGYINITMENGYATFSVKLYGQPAGENVTLADSFVLKASDHSSLFESFFPSGLVEAGEFVNVFNNTGQYYGAASAFSSVNVGKGTLFSTSQMVKLINVPEQPSGYFENVSRELNANSVYYIESPSHSFLSHIVFTGNSTVISALLGSSSVSNVTLLYISLEKTDVAVETLNVMHYVMHYIAVVVILWILGVVYMISLYRRVSLKQRR”: “failed”; “MILNILLNLAIFIIPSLAVWNQIILYIFGKSGDIANLILLNNESNLPKLSIIVPTKGERIEVIQGLIDNIHEAIWDRNKLEIIIVSDDEQEYFDKLLSTLIIPPDLDVRIFRREKKLGYKSGALAFGLQKSTGDLILTLDVDARIEKDSLIKAYNHMVNLGCDAITMEWHGYSNISTSLAKALMVSTVLTSKSILRGRDKLGLKVLPIGCGTIYKRSALEAVNGWDYKMIQDDYELGARLINKGFKVCASSSPVYVEVPDNLIAFYVQQTRWAMGTMEVLYWRFKYIISSDIKLWQKLEIIAYLSQYIPIILTFISAIIFAIAGFVGIRLSMNLPMFIIWAITLSIYASIFVNSAKKSGIDTVTAIKALGRLSAYTVGISPFLLIGTINAFKKTRTYIVTPKGKKAKSNIGYPILAFGVFFILSAFLYMFRGDFLTFIWLAYYSIAFLYTFIAYIKGL”: “failed”; “MILSAEQSFTLRHPHGQAAALAFVREPAAALAGVRFLRGLDSDGEQVWGELLVTVPLLGEVDLPFRSEIVRTPQGAELRPLTLTGERAWVAVSGQATAAEGGEMAFAFQFQAHLATPEAEGWGGAAFEKMVQAAAGRTLERVAKALPEGLAAGLPPA”: “not failed”. As to “MILSLNLLHKISPKLKKIPLNELCAALMDLGCEVETINSIKPSTNLVFAKVLEKTRHPNANHLNLVKVKANQKVYEIVCGANNFSVHNWVVLAKLNAELANGLKITPRELRGYVSNGMLCAYSEINPQATSFLTSTDLDGILVLDDNYDHYKTPNQIFNLDDVILDLSIPSNRNDLNGYFWIAKELCAYFDFEYVVDATINHRPHKEIIDVRILSDDVNSYGIIEVKNIQNYILKWNTKSILINNQIKVLNNFADNMNFLTLLTANPLHAFDARKISGQIVVKNAEEDAILLGLDQKEYLIKKGDLIIVDDQKILALAGIIGSNDSKIDATSTTAYIECANFNPMLIANTARRLKINTAAAMRFSKPLTNYVTKVTLKKLLANFKSDAKLIYYFKHSVHNVIKNKINQVSDFVGAEIDLDTAQTFLKRLGYKINKSNLITPSHRYDVLNEFDVYEDIMKKISIQEIKPQPISFDILNFENNLAYDFEKKVSDFLVDQGLFECKTYNLKNQTQAHEFNFFNFKQAYEINNPTSNMRSHLKLNNLNSLLEVLEYNQNQKNELENIFEISKINPVDSSQQTVLSIILCKPLINSKINDSLIVNNFVTTKALLHALLTKLNIDYAYDKNHVVNELYDNNQLALINANKQVFGFIGQLKNQVKKTYGLSNDIFIINLNLTSYLNQKQVITKVIKPSMYHDVIRDISVKLASDVDLNNIIANIKKIKNIRKVEISDLYIKDDGIIYTFKYYINDHLSNLSSEQIIIIEQEVNNYLKQF”, the protein production entry is on record as “failed”.
